Where “and” joins values, the source holds several entries; their conditions need not be identical. Identical values can stand only once.
T1: human soluble IL-6R (human, UniProt P08887 20-357)
T1 sequence: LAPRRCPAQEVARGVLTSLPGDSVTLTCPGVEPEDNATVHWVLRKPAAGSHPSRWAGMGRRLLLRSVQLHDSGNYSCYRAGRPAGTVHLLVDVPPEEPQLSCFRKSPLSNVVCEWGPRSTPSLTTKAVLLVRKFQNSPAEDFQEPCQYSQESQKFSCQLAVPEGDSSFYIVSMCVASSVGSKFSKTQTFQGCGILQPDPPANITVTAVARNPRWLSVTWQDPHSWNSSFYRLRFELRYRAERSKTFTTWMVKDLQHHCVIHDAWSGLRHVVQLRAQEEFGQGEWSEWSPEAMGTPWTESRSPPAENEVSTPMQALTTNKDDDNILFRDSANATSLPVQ

T2: human membrane-bound IL-6R subunit alpha (human, UniProt P08887 20-468)
T2 sequence: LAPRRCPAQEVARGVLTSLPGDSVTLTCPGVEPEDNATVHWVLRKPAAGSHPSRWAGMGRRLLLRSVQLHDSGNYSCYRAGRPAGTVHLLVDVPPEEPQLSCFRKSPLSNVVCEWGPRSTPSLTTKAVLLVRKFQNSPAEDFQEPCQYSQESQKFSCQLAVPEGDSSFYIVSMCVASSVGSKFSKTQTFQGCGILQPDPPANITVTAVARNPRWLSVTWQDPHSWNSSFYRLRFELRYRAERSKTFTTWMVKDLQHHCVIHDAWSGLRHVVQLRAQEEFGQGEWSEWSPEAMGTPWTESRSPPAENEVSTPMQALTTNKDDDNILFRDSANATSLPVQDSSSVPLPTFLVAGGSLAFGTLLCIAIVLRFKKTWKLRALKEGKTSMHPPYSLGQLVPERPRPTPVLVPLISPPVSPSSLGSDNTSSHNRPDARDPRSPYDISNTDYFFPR

T3: human soluble IL-6R (human, UniProt P08887 20-357, limits assumed)
T3 sequence: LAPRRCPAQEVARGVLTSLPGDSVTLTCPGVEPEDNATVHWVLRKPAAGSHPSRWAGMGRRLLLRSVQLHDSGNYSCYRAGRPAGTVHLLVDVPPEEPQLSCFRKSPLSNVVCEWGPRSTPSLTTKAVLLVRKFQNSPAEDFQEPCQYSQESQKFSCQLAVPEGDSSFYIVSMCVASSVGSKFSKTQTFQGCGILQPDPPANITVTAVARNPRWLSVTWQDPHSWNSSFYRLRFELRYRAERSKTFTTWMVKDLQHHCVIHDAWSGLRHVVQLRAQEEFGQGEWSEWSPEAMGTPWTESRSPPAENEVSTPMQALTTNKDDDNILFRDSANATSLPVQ

B1: candidate anti-IL-6R Fab clone 20 (Fab, V domains shown)
VH: EVKLMESGGGLVQPGGSLKLSCAASGFTFSNYGMSWVRQTPDKRLELVAIINSNGGSTYYPDSVKGRFTISRDNAKNTLYLQMSSLKSEDTAIYYCARDGNFVSDYWGQGTTLTVSS
VL: DIVLTQSPASLAVSLGQRATISCRASESVDSYGNRFLNWYQQKPGQPPKLLIYLASNLESGVPARFSGSGSRTDFTLTIDPVEADDAATYYCQQNNEDPYTFGGGTKLEIK
B2: candidate anti-IL-6R Fab clone 07 (Fab, V domains shown)
VH: EVKLVESGGGLVQPGGSLKLSCAASGFTFSSYAMSWVRQTADKRLELVANINSNGGSTYYPDSVKGRFTISRDNAKNTLFLQMSSLKSEDTAMYYCAREGYYTMDYWGQGTSVTVSS
VL: DIVLTQSPASLAVSPGQRATISCRASESVDSYGNSFMNWYQQKPGQPPKLLIYLASNLESGVPARFSGSGSRTDFTLTIDPVEADDAATYYCQQNNEDPYTFGGGTKLEIK
B3: anti-IL-6R Fab C20 (purified Fab fragment of C20) (Fab, V domains shown)
VH: EVKLMESGGGLVQPGGSLKLSCAASGFTFSNYGMSWVRQTPDKRLELVAIINSNGGSTYYPDSVKGRFTISRDNAKNTLYLQMSSLKSEDTAIYYCARDGNFVSDYWGQGTTLTVSS
VL: DIVLTQSPASLAVSLGQRATISCRASESVDSYGNRFLNWYQQKPGQPPKLLIYLASNLESGVPARFSGSGSRTDFTLTIDPVEADDAATYYCQQNNEDPYTFGGGTKLEIK

What was measured:
Test in all cases: cell-based or functional assay
human soluble IL-6R [1] = target: T1, human soluble IL-6R
human soluble IL-6R [2] = target: T1, human soluble IL-6R; remark: listed apart in the source
[3] = target: T2, human membrane-bound IL-6R subunit alpha
human soluble IL-6R [4] = target: T1, human soluble IL-6R; remark: listed apart in the source
[5] = target: T2, human membrane-bound IL-6R subunit alpha; remark: listed apart in the source
human soluble IL-6R [6] = target: T3, human soluble IL-6R
[7] = target: Hyper-IL-6 (recombinant fusion protein consisting of IL-6 and soluble IL-6R)

Binder	Proliferation in % (Ba/F3_gp130 cells, IL-6 + sIL-6R = 100%; IL-6 trans signalling; 1% PE) (human soluble IL-6R [1])	Classical:trans signalling ratio intracellular signalling (human soluble IL-6R [2])	Residual STAT3 phosphorylation in HEK293 (IL-6 + sIL-6R; IL-6 trans signalling; 1% PE) (human soluble IL-6R [2])	Residual STAT3 phosphorylation in HEK293_IL-6R (IL-6 + sIL-6R; combined classical and trans signalling; 1% PE) [3]	Classical:trans signalling ratio proliferation (human soluble IL-6R [4])	Proliferation in % (Ba/F3_gp130_IL-6R cells, IL-6 + sIL-6R = 100%; combined IL-6 classical and trans signalling; 1% PE) [5]	IC50 of inhibition of proliferation of Ba/F3_gp130 cells induced by 10 ng/ml IL-6 and 200 ng/ml sIL-6R (human soluble IL-6R [6])	IC50 of inhibition of proliferation of Ba/F3_gp130 cells induced by 28 ng/ml Hy-IL-6 [7]
B1	36.6%	3 ratio	32%	97%	2.2 ratio	81.9%		
B2	55.7%	2.8 ratio	28%	77%	1.5 ratio	86.1%		
B3							159 ng/ml and 3.2 nM	98 ng/ml and 1.9 nM
